Reference: PMC5645029 (Journal of medicinal chemistry, 2017)
Each block holds one molecule with its values, some of them ahead of it. Non-standard residues stand in square brackets, D forms with d. Residues, ends and D or L forms follow the SMILES beside them.

Tests used:
mMC5R = mMC5R (Mus musculus, UniProt P41149); assay: cell-based
mMC1R = mMC1R (Mus musculus, UniProt Q01727); assay: AlphaScreen cAMP assay, agonist activity; conditions: up to 100 μM concentrations
[1] = target: mouse melanocortin-1 receptor (mouse) (UniProt Q01727)
[2] = target: mouse melanocortin-3 receptor (mouse) (UniProt P33033)
[3] = target: mouse melanocortin-4 receptor (mouse) (UniProt P56450)
mouse melanocortin-4 receptor (mouse), sequence (P56450 whole entry): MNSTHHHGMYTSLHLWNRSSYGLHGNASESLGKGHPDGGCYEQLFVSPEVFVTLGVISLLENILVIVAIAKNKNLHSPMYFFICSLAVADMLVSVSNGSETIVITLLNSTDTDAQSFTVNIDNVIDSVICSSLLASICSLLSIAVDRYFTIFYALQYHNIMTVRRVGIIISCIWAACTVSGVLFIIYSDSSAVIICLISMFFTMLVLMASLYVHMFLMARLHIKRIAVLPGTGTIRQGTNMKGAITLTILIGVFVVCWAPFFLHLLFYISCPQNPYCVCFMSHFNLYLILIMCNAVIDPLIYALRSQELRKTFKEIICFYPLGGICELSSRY

mouse melanocortin-1 receptor (mouse), sequence (Q01727 whole entry): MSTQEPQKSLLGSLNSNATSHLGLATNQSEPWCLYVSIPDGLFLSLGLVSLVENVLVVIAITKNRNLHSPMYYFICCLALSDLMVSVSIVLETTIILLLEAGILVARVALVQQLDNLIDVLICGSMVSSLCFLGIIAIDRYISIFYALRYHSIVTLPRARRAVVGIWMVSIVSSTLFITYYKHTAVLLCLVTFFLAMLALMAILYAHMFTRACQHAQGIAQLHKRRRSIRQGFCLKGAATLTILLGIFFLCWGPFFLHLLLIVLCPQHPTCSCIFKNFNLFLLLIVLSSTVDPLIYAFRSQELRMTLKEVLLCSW
mouse melanocortin-3 receptor (mouse), sequence (P33033 whole entry): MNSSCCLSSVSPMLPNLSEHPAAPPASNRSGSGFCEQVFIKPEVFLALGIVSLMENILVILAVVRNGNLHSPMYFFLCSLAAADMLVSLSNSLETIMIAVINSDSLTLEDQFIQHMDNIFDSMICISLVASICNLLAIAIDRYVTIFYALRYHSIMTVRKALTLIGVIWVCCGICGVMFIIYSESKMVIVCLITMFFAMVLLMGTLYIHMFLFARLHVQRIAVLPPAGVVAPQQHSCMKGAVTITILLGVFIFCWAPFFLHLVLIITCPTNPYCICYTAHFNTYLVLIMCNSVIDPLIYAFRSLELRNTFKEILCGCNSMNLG
mMC1R, sequence (Q01727 whole entry): as the sequence (Q01727 whole entry) above
mMC5R, sequence (P41149 whole entry): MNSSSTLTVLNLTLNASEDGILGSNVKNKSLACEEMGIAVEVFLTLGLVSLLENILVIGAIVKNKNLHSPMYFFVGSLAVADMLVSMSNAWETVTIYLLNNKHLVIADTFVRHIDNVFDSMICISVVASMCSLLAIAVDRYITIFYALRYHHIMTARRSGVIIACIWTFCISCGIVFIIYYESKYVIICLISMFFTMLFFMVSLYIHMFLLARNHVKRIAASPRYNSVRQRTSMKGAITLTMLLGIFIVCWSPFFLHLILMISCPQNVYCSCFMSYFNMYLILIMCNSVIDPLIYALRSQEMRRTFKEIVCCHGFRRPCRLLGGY

- agonist EC50 (cAMP AlphaScreen, HEK293 cells stably expressing the receptor) [1]: > 100 µM
- agonist EC50 (cAMP AlphaScreen, HEK293 cells stably expressing the receptor) [2]: > 100 µM
- agonist EC50 (cAMP AlphaScreen, HEK293 cells stably expressing the receptor) [3]: > 100 µM
Molecule: c[Pro-Arg-Phe-Phe-DDap-Ala-Phe-DPro] (peptide)

- agonist EC50 (cAMP AlphaScreen, HEK293 cells stably expressing the receptor) [2]: > 100 µM
- agonist EC50 (cAMP AlphaScreen, HEK293 cells stably expressing the receptor) [3]: > 100 µM
Molecule: c[Pro-Arg-Phe-Phe-Dap-Ala-Phe-DPro] (peptide)

- agonist EC50 (cAMP AlphaScreen, HEK293 cells stably expressing the receptor) [2]: > 100 µM
- agonist EC50 (cAMP AlphaScreen, HEK293 cells stably expressing the receptor) [3]: > 100 µM
Molecule: cyclo(PRFFVAF[dP]) [c[Pro-Arg-Phe-Phe-Val-Ala-Phe-DPro]]

- agonist EC50 (cAMP AlphaScreen, HEK293 cells stably expressing the receptor) [1]: > 100 µM
- agonist EC50 (cAMP AlphaScreen, HEK293 cells stably expressing the receptor) [2]: > 100 µM
- agonist EC50 (cAMP AlphaScreen, HEK293 cells stably expressing the receptor) [3]: > 100 µM
B5: c[Pro-Arg-Phe-Phe-Leu-Ala-Phe-DPro] (peptide)
peptide: cyclo(PRFFLAF[dP])
SMILES: CC(C)C[C@@H]1NC(=O)[C@H](Cc2ccccc2)NC(=O)[C@H](Cc2ccccc2)NC(=O)[C@H](CCCNC(=N)N)NC(=O)[C@@H]2CCCN2C(=O)[C@H]2CCCN2C(=O)[C@H](Cc2ccccc2)NC(=O)[C@H](C)NC1=O

- agonist EC50 (cAMP AlphaScreen, HEK293 cells stably expressing the receptor) [1]: 20.5 µM
- agonist EC50 (cAMP AlphaScreen, HEK293 cells stably expressing the receptor) [2]: > 100 µM
- agonist EC50 (cAMP AlphaScreen, HEK293 cells stably expressing the receptor) [3]: > 100 µM
Molecule: cyclo(PRFFEAF[dP]) [c[Pro-Arg-Phe-Phe-Glu-Ala-Phe-DPro]]

- agonist EC50 (cAMP AlphaScreen, HEK293 cells stably expressing the receptor) [1]: > 100 µM
- agonist EC50 (cAMP AlphaScreen, HEK293 cells stably expressing the receptor) [2]: > 100 µM
- agonist EC50 (cAMP AlphaScreen, HEK293 cells stably expressing the receptor) [3]: > 100 µM
Molecule: cyclo(PRFFDAF[dP]) [c[Pro-Arg-Phe-Phe-Asp-Ala-Phe-DPro]]

- agonist EC50 (cAMP AlphaScreen, HEK293 cells stably expressing the receptor) [1]: > 100 µM
- agonist EC50 (cAMP AlphaScreen, HEK293 cells stably expressing the receptor) [2]: > 100 µM
- agonist EC50 (cAMP AlphaScreen, HEK293 cells stably expressing the receptor) [3]: > 100 µM
Molecule: cyclo(PRFFSAF[dP]) [c[Pro-Arg-Phe-Phe-Ser-Ala-Phe-DPro]]

- agonist EC50 (cAMP AlphaScreen, HEK293 cells stably expressing the receptor) [1]: > 100 µM
- agonist EC50 (cAMP AlphaScreen, HEK293 cells stably expressing the receptor) [2]: > 100 µM
- agonist EC50 (cAMP AlphaScreen, HEK293 cells stably expressing the receptor) [3]: > 100 µM
B7: c[Pro-Arg-Phe-Phe-His-Ala-Phe-DPro] (peptide)
peptide: cyclo(PRFFHAF[dP])
SMILES: C[C@@H]1NC(=O)[C@H](Cc2c[nH]cn2)NC(=O)[C@H](Cc2ccccc2)NC(=O)[C@H](Cc2ccccc2)NC(=O)[C@H](CCCNC(=N)N)NC(=O)[C@@H]2CCCN2C(=O)[C@H]2CCCN2C(=O)[C@H](Cc2ccccc2)NC1=O

- agonist EC50 (cAMP AlphaScreen, HEK293 cells stably expressing the receptor) [1]: > 100 µM
- agonist EC50 (cAMP AlphaScreen, HEK293 cells stably expressing the receptor) [2]: > 100 µM
- agonist EC50 (cAMP AlphaScreen, HEK293 cells stably expressing the receptor) [3]: > 100 µM
B8: c[Pro-Arg-Phe-Phe-Thr-Ala-Phe-DPro] (peptide)
peptide: cyclo(PRFFTAF[dP])
SMILES: C[C@@H]1NC(=O)[C@H]([C@@H](C)O)NC(=O)[C@H](Cc2ccccc2)NC(=O)[C@H](Cc2ccccc2)NC(=O)[C@H](CCCNC(=N)N)NC(=O)[C@@H]2CCCN2C(=O)[C@H]2CCCN2C(=O)[C@H](Cc2ccccc2)NC1=O

Further lines, the molecule ahead of its results:

Molecule: C[C@@H]1NC(=O)[C@H](Cc2c[nH]c3ccccc23)NC(=O)[C@H](Cc2ccccc2)NC(=O)[C@H](Cc2ccccc2)NC(=O)[C@H](CCCNC(=N)N)NC(=O)[C@@H]2CCCN2C(=O)[C@H]2CCCN2C(=O)[C@H](Cc2ccccc2)NC1=O [Peptide 15, c[Pro-Arg-Phe-Phe-Trp-Ala-Phe-DPro]] (cyclo(RFFWAF[dP]P))
- EC50 (mMC5R): 150 nM

Molecule: C[C@@H]1NC(=O)[C@H](CC(N)=O)NC(=O)[C@H](Cc2ccccc2)NC(=O)[C@H](Cc2ccccc2)NC(=O)[C@H](CCCNC(=N)N)NC(=O)[C@@H]2CCCN2C(=O)[C@H]2CCCN2C(=O)[C@H](C)NC1=O [Peptide 24, c[Pro-Arg-Phe-Phe-Asn-Ala-Ala-DPro]] (cyclo(RFFNAA[dP]P))
- agonist activity at the MC1R (in words) (mMC1R): no agonist activity

Molecule: c[Pro-Arg-Phe-Phe-Abu-Ala-Phe-DPro] (peptide)
- agonist EC50 (cAMP AlphaScreen, HEK293 cells stably expressing the receptor) [1]: > 100 µM
- agonist EC50 (cAMP AlphaScreen, HEK293 cells stably expressing the receptor) [2]: > 100 µM
- agonist EC50 (cAMP AlphaScreen, HEK293 cells stably expressing the receptor) [3]: > 100 µM

B1: c[Pro-Arg-Phe-Phe-Asn-Lys-Phe-DPro] (peptide)
peptide: cyclo(PRFFNKF[dP])
SMILES: N=C(N)NCCC[C@@H]1NC(=O)[C@@H]2CCCN2C(=O)[C@H]2CCCN2C(=O)[C@H](Cc2ccccc2)NC(=O)[C@H](CCCCN)NC(=O)[C@H](CC(N)=O)NC(=O)[C@H](Cc2ccccc2)NC(=O)[C@H](Cc2ccccc2)NC1=O
- agonist EC50 (cAMP AlphaScreen, HEK293 cells stably expressing the receptor) [3]: > 100 µM

B2: c[Pro-Arg-Phe-Phe-Asn-Ser-Phe-DPro] (peptide)
peptide: cyclo(PRFFNSF[dP])
SMILES: N=C(N)NCCC[C@@H]1NC(=O)[C@@H]2CCCN2C(=O)[C@H]2CCCN2C(=O)[C@H](Cc2ccccc2)NC(=O)[C@H](CO)NC(=O)[C@H](CC(N)=O)NC(=O)[C@H](Cc2ccccc2)NC(=O)[C@H](Cc2ccccc2)NC1=O
- agonist EC50 (cAMP AlphaScreen, HEK293 cells stably expressing the receptor) [1]: > 100 µM
- agonist EC50 (cAMP AlphaScreen, HEK293 cells stably expressing the receptor) [2]: > 100 µM
- agonist EC50 (cAMP AlphaScreen, HEK293 cells stably expressing the receptor) [3]: > 100 µM

Molecule: cyclo(PRFFAAF[dP]) [c[Pro-Arg-Phe-Phe-Ala-Ala-Phe-DPro]]
- agonist EC50 (cAMP AlphaScreen, HEK293 cells stably expressing the receptor) [1]: > 100 µM
- agonist EC50 (cAMP AlphaScreen, HEK293 cells stably expressing the receptor) [2]: > 100 µM
- agonist EC50 (cAMP AlphaScreen, HEK293 cells stably expressing the receptor) [3]: > 100 µM

B3: c[Pro-Arg-Phe-Phe-Asn-Ala-Ala-DPro] (peptide)
peptide: cyclo(PRFFNAA[dP])
SMILES: C[C@@H]1NC(=O)[C@H](CC(N)=O)NC(=O)[C@H](Cc2ccccc2)NC(=O)[C@H](Cc2ccccc2)NC(=O)[C@H](CCCNC(=N)N)NC(=O)[C@@H]2CCCN2C(=O)[C@H]2CCCN2C(=O)[C@H](C)NC1=O
- agonist EC50 (cAMP AlphaScreen, HEK293 cells stably expressing the receptor) [1]: > 100 µM
- agonist EC50 (cAMP AlphaScreen, HEK293 cells stably expressing the receptor) [2]: > 100 µM
- agonist EC50 (cAMP AlphaScreen, HEK293 cells stably expressing the receptor) [3]: > 100 µM

B4: c[Pro-Arg-Phe-Phe-Asn-Asp-Phe-DPro] (peptide)
peptide: cyclo(PRFFNDF[dP])
SMILES: N=C(N)NCCC[C@@H]1NC(=O)[C@@H]2CCCN2C(=O)[C@H]2CCCN2C(=O)[C@H](Cc2ccccc2)NC(=O)[C@H](CC(=O)O)NC(=O)[C@H](CC(N)=O)NC(=O)[C@H](Cc2ccccc2)NC(=O)[C@H](Cc2ccccc2)NC1=O
- agonist EC50 (cAMP AlphaScreen, HEK293 cells stably expressing the receptor) [2]: > 100 µM
- agonist EC50 (cAMP AlphaScreen, HEK293 cells stably expressing the receptor) [3]: > 100 µM

B6: c[Pro-Arg-Phe-Phe-Asn-Gly-Phe-DPro] (peptide)
peptide: cyclo(PRFFNGF[dP])
SMILES: N=C(N)NCCC[C@@H]1NC(=O)[C@@H]2CCCN2C(=O)[C@H]2CCCN2C(=O)[C@H](Cc2ccccc2)NC(=O)CNC(=O)[C@H](CC(N)=O)NC(=O)[C@H](Cc2ccccc2)NC(=O)[C@H](Cc2ccccc2)NC1=O
- agonist EC50 (cAMP AlphaScreen, HEK293 cells stably expressing the receptor) [1]: > 100 µM
- agonist EC50 (cAMP AlphaScreen, HEK293 cells stably expressing the receptor) [2]: > 100 µM
- agonist EC50 (cAMP AlphaScreen, HEK293 cells stably expressing the receptor) [3]: > 100 µM
